“And” between values parts separate entries of the source, which are not always exact repeats. Identical values can stand only once.
Molecular target: the molecule itself
Test: cryo-EM structure

B1: CXCR4EM (human CXCR4 with N119S, hemagglutinin signal peptide, C-terminal monomeric enhanced GFP and FLAG tag) (receptor)
chain: EGISIYTSDNYTEEMGSGDYDSMKEPCFREENANFNKIFLPTIYSIIFLTGIVGNGLVILVMGYQKKLRSMTDKYRLHLSVADLLFVITLPFWAVDAVANWYFGNFLCKAVHVIYTVSLYSSVLILAFISLDRYLAIVHATNSQRPRKLLAEKVVYVGVWIPALLLTIPDFIFANVSEADDRYICDRFYPNDLWVVVFQFQHIMVGLILPGIVILSCYCIIISKLSHSKGHQKRKALKTTVILILAFFACWLPYYIGISIDSFILLEIIKQGCEFENTVHKWISITEALAFFHCCLNPILYAFLGAKFKTSAQHALTSVSRGSSLKILSKGKRGGHSSVSTESESSSFHSS
  stoichiometry N: 3 and 4
